Data taken from patent publication US20240409960A1, “METHOD FOR CONTROLLING PROTEIN FUNCTION” (The University of Tokyo, priority 2021, published 2024).

Legend:
Type in all cases: cell-based, human
[1] = test system: StopFluc luciferase reporter gene in HEK293FT cells; assay: luciferase-based HDR (Homology-directed repair) assay of Cas9 endonuclease activity
From the text: For constructing a luciferase reporter for detecting Cas9 endonuclease activity, the sequence encoding firefly luciferase (Fluc) was amplified from pGL4.31 vector (Promega). The firefly luciferase with an in-flamed stop codon (StopFluc) was produced by an overlapping PCR extension method. The primer (5′-[…]-3′: SEQ ID No: 40) was used for PCR. The Stop-Fluc construct was inserted into the HindII-XhoI site of pcDNA 3.1/V 5-HisA having the CMV promoter. A luciferase donor vector was constructed by inserting the reverse firefly luciferase sequence into the XhoI and HindIII site of the bacterial expression pCold-I vector (Clontech), and was used as donor DNA.
HEK293T cells (American Type Culture Collection: ATCC) were cultured at 37° C. under 5% CO2 in Dulbecco's Modified Eagle Medium (DMEM: Thermo Fisher Scientific) supplemented with 10% fetal bovine serum (FBS: Thermo Fisher Scientific), 100 units/ml of penicillin and 100 μg/ml of streptomycin (Thermo Fisher Scientific) and 2 mM GlutaMAX (Thermo Fisher Scientific).
For luciferase assay, HEK 293 cells were plated at 25,000 cells per well on a 96-well flat clear-bottom microplate (Greiner Bio-One), and were then cultured for 24 hours at 37° C. in 5% CO2. The cells were transfected with cDNAs encoding destabilized Cas9 or an empty vector (negative control) along with the luciferase reporter (StopFluc), donor DNA (Fluc) and Cas9 encoding gRNA, using Lipofectamine 3000 (Thermo Fisher Scientific) at 37° C. The total amount of DNA was 50 ng per well. The transfection ratio of the destabilized Cas9, the luciferase reporter, the donor DNA, and the gRNA was set to be equal (1:1:1:1). […] Bioluminescence measurement was performed for 1 second per well at room temperature using a Centro XS^3 LB 960 plate-reading luminometer (Berthold Technologies).
Full-length Cas9 was used as a positive control. […] Bioluminescence measurement was performed for 1 second per well at room temperature using a Centro XS^3 LB 960 plate-reading luminometer (Berthold Technologies).

[2] = test system: FRT sites (Floxed (FRT)-STOP Fluc reporter) in HEK293 cells; assay: luciferase assay of Flp-FRT DNA recombination in HEK293 cells; conditions: 5 ng plasmid, 24 or 48 hours
Description: (§1) For constructing the luciferase reporters detecting for the activities of Flp-FRT recombinase, VCre-Vlox recombinase and Dre-rox recombinase, the FRT site ([…]: SEQ ID No: 37), the Vlox site ([…]: SEQ ID No: 38), the rox site ([…]: SEQ ID No: 39), were inserted into HindIII and KpnI sites and ClaI and EcoRI sites in the pcDNA3.1 (+) vector of the luciferase reporter (of loxP-stop-loxP-Fluc).
(§2) For luciferase assay, HEK 293 cells were plated at 25,000 cells per well on a 96-well flat white microplate (Thermo Fisher Scientific), and were then cultured for 24 hours at 37° C. in 5% CO2. The cells were transfected with cDNAs encoding destabilized Cre along with the luciferase reporter (loxP-stop-loxP Fluc), using X-tremeGENE9 reagent (Merck Millipore) at 37° C. The total amount of DNA was 50 ng per well. Twenty-four hours after the transfection, TMP or DMSO was added into the cells, and the cells were further cultured for 24 hours or 48 hours. Just before the luciferase assay, the medium was replaced with Hanks' balanced salt solution (HBSS) (Thermo Fisher Scientific) containing 0.2 mM D-luciferin potassium salt. Bioluminescence measurement was performed for 1 second per well at room temperature using a Centro XS^3 LB 960 plate-reading luminometer (Berthold Technologies).

[3] = test system: Vlox sites (Floxed (Vlox)-STOP Fluc reporter) in HEK293 cells; assay: luciferase assay of VCre-Vlox DNA recombination in HEK293 cells; conditions: 5 ng plasmid, TMP 10 nM or 500 nM or DMSO, 24 or 48 hours
Description: as §1, §2

For “SPEED-Cas9: split spCas9 (a.a. 2-713 and 714-1,368) tagged with NZ/CZ leucine zippers and DD sequences, joined via P2A; SEQ ID No: 28”, the “background endonuclease activity in the absence of TMP” value ([1]; 12.5 ng plasmid, DMSO, 48 hours) was “extremely low background level of endonuclease activity, comparable to that of the negative control group using the pcDNA3.1 empty vector plasmid”, the TMP-dependent endonuclease activity ([1]; 12.5 ng plasmid, TMP 500 nM, 48 hours) was “extremely high TMP-dependent endonuclease activity” and the “TMP-dependent endonuclease activity compared with full-length Cas9” value ([1]; TMP 500 nM (FIGS. 9d and e)) was “comparable to that of full-length Cas9”.

B1: DD-Flp: Flp tagged with single DD; SEQ ID No: 15 (protein, listed as Saccharomyces cerevisiae)
chain: MVSKYPYDVPDYARSGGSGGMISLIAALAVDYVIGMENAMPWNLPADLAWFKRNTLNKPVIMGRHTWESIGRPLPGRKNIILSSQPSTDDRVTWVKSVDEAIAACGDVPEIMVIGGGRVIEQFLPKAQKLYLTHIDAEVEGDTHFPDYEPDDWESVFSEFHDADAQNSHSYCFEILERRGGSGGSGGKLVPKKKRKVGGSQFDILCKTPPKVLVRQFVERFERPSGEKIASCAAELTYLCWMITHNGTAIKRATFMSYNTIISNSLSFDIVNKSLQFKYKTQKATILEASLKKLIPAWEFTIIPYNGQKHQSDITDIVSSLQLQFESSEEADKGNSHSKKMLKALLSEGESIWEITEKILNSFEYTSRFTKTKTLYQFLFLATFINCGRFSDIKNVDPKSFKLVQNKYLGVIIQCLVTETKTSVSRHIYFFSARGRIDPLVYLDEFLRNSEPVLKRVNRTGNSSSNKQEYQLLKDNLVRSYNKALKKNAPYPIFAIKNGPKSHIGRHLMTSFLSMKGLTELTNVVGNWSDKRASAVARTTYTHQITAIPDHYFALVSRYYAYDPISKEMIALKDETNPIEEWQHIEQLKGSAEGSIRYPAWNGIISQEVLDYLSSYINRRI
modifications: MISC_FEATURE - HAtag; DOMAIN 21..179 Degradation Domain; MISC_FEATURE - Flp
B1 was tested, and the “background DNA recombination activity in the absence of TMP” value [2] was “high background DNA recombination activity comparable to full-length Flp”.

B2: SPEED-VCre: split VCre (a.a. 2-277 and 278-380), single DD on the N-terminal and C-terminal sides; SEQ ID No: 20 (protein, listed as Vibrio parahaemolyticus)
chain: MVSKYPYDVPDYARSGGSGGMISLIAALAVDYVIGMENAMPWNLPADLAWFKRNTLNKPVIMGRHTWESIGRPLPGRKNIILSSQPSTDDRVTWVKSVDEAIAACGDVPEIMVIGGGRVIEQFLPKAQKLYLTHIDAEVEGDTHFPDYEPDDWESVFSEFHDADAQNSHSYCFEILERRGGSGGSGGKLVPKKKRKVGGIENQLSLLGDFSGVRPDDVKTAIQAAQKKGINVAENEQFKAAFEHLLNEFKKREERYSPNTLRRLESAWTCFVDWCLANHRHSLPATPDTVEAFFIERAEELHRNTLSVYRWAISRVHRVAGCPDPCLDIYVEDRLKAIARKKVREGEAVKQASPFNEQHLLKLTSLWYRSDKLLLRRNLALLAVAYESMLRASELANIRVSDMELAGDGTAILTIPITKTNHSGEPDTCILSQDVVSLLMDYTEAGKLDMSSDGFLFVGVSKHNTCIKPKKDKQTGSGSGATNFSLLKQAGDVEENPGPLEGEVLHKPITTKTVEGVFYSAWETLDLGRQGVKPFTAHSARVGAAQDLLKKGYNTLQIQQSGRWSSGAMVARYGRAILARDGAMAHSRVKTRSAPMQWGKDEKDGGSGGSGGMISLIAALAVDYVIGMENAMPWNLPADLAWFKRNTLNKPVIMGRHTWESIGRPLPGRKNIILSSQPSTDDRVTWVKSVDEAIAACGDVPEIMVIGGGRVIEQFLPKAQKLYLTHIDAEVEGDTHFPDYEPDDWESVFSEFHDADAQNSHSYCFEILERR
modifications: HAtag; DOMAIN 21..179 Degradation Domain; SIGNAL 190..197 Nuclear Localization Signal; MISC_FEATURE - N-terminal side of VCre; MISC_FEATURE - P2A; MISC_FEATURE - C-terminal side of VCre; DOMAIN 613..771 Degradation Domain
For B2, the “background and TMP-dependent DNA recombination activity” value [3] was “results similar to those of SPEED-Cre”.

B3: SPEED-Flp: split Flp (a.a. 2-374 and 375-423), single DD on the N-terminal and C-terminal sides; SEQ ID No: 16 (protein, listed as Saccharomyces cerevisiae)
chain: MVSKYPYDVPDYARSGGSGGMISLIAALAVDYVIGMENAMPWNLPADLAWFKRNTLNKPVIMGRHTWESIGRPLPGRKNIILSSQPSTDDRVTWVKSVDEAIAACGDVPEIMVIGGGRVIEQFLPKAQKLYLTHIDAEVEGDTHFPDYEPDDWESVFSEFHDADAQNSHSYCFEILERRGGSGGSGGKLVPKKKRKVGGSQFDILCKTPPKVLVRQFVERFERPSGEKIASCAAELTYLCWMITHNGTAIKRATFMSYNTIISNSLSFDIVNKSLQFKYKTQKATILEASLKKLIPAWEFTIIPYNGQKHQSDITDIVSSLQLQFESSEEADKGNSHSKKMLKALLSEGESIWEITEKILNSFEYTSRFTKTKTLYQFLFLATFINCGRFSDIKNVDPKSFKLVQNKYLGVIIQCLVTETKTSVSRHIYFFSARGRIDPLVYLDEFLRNSEPVLKRVNRTGNSSSNKQEYQLLKDNLVRSYNKALKKNAPYPIFAIKNGPKSHIGRHLMTSFLSMKGLTELTNVVGNWSDKRASAVARTTYTHQITAIPDHYFALVSRYYAYDPISKEMIALGSGSGATNFSLLKQAGDVEENPGPLEKDETNPIEEWQHIEQLKGSAEGSIRYPAWNGIISQEVLDYLSSYINRRIGGSGGSGGMISLIAALAVDYVIGMENAMPWNLPADLAWFKRNTLNKPVIMGRHTWESIGRPLPGRKNIILSSQPSTDDRVTWVKSVDEAIAACGDVPEIMVIGGGRVIEQFLPKAQKLYLTHIDAEVEGDTHFPDYEPDDWESVFSEFHDADAQNSHSYCFEILERR
modifications: MISC_FEATURE - HAtag; DOMAIN 21..179 Degradation Domain; SIGNAL 190..197 Nuclear Localization Signal; MISC_FEATURE - N-terminal side of Flp; MISC_FEATURE - P2A; MISC_FEATURE - C-terminal side of Flp; DOMAIN 656..814 Degradation Domain
B3 was tested, and the “background DNA recombination activity in the absence of TMP” value [2] was “extremely low background level of DNA recombination activity comparable to a negative control group using the pcDNA3.1 empty vector plasmid” and the “TMP-dependent DNA recombination activity” value ([2]; TMP 10 nM or 500 nM) was “extremely high TMP-dependent DNA recombination activity”.
